We go through one molecule from patent US9475855B2, “Human Notch3 based fusion proteins as decoy inhibitors of Notch3 signaling” (THE TRUSTEES OF COLUMBIA UNIVERSITY IN THE CITY OF NEW YORK, priority 2008, dated 2016).

Holding throughout (type): cell-based, human
One test concerns HUVEC. Description: HUVEC proliferation (CCK-8 kit). To be noted: transduced N1ECDFc, complete medium, 4 days. How it is done:
These Figures show proliferation of Ad-VEGF165-transduced HUVEC. HUVEC were transduced with Ad-VEGF165 at the indicated dosages. Ad-LacZ was also co-infected to make the same total amount of adenovirus at a MOI of 40 pfu/cell. HUVEC were suspended in SFM supplemented with 1% FBS and then plated at 1×10^4 cells/well in 24-well multi-wll plates with 0.4 ml of medium. After 4 days, cell numbers were determined using the CCK-8 kit and the results are indicated as the ratio of cell numbers determined to the number of control cells, which were transduced with Ad-GFP at a MOI of 40 pfu/cell. […] Ad-VEGF-transduced HUVEC were treated with SU5416 at the indicated dosages.
These Figures show the effect of alteration of Notch signaling on cell proliferation. The cells were transduced with the indicated adenoviruses. Ad-GFP was also co-infected to make the same total amount of adenovirus at a MOI of 60 pfu/cell. After 4 days, cell numbers were determined using the CCK-8 kit and results are indicated as the ratio of cell numbers determined to the number of control cells, which were transduced with AD-GFP at MOI of 60 pfu/cell. […] Transduced HUVEC were suspended in complete medium and then plated at 1×10^4 cells/well in 24-well multiwell plates with 0.4 ml of indicated medium (□: Ad-N1IC; ▪: Ad-N1ECDFc). […]
On the technique in general: Tetrazolium dyes change colour on reduction, which living cells bring about.

Another test concerns MMP9. The test can be described thus: gelatin zymography of conditioned medium, MMP-9. To be noted: co-transduction with Ad-VEGF, fibrin gel. How it is done: (§1) FIGS. 24A-B show gelatin zymography analysis of MMP-9 and MMP-2 activity stimulated by VEGF in HUVEC. […] Transduced HUVEC were cultured on fibrin gel on the indicated day (i.e. D2, D4, D6, D8). Similar results were also obtained by using collagen gel, although induction of MMP-9 was stronger on fibrin gel than collagen gel (data not shown). […] HUVEC were transduced with Ad-N1ECDFc at the indicated doses and condition medium was collected from HUVEC cultured on collagen gel at day 4. FIGS. 24C-D show up-regulation of MMP-9 and MT1-MMP with Notch signaling. HUVEC were transduced with either Ad-LacZ or Ad-N1IC at 40 MOI. Numbers show PCR cycles. […] HUVEC were transduced with Ad-VEGF in the absence or presence of co-transduction of Ad-N1ECDFc at 40 MOI each. Ad-LacZ was co-transduced to make the same total amount of adenovirus at 80 MOI.
(§2) Requisition of MMPs for angiogenic sprouting has been established by synthetic MMP inhibitors (16). GM6001 is one broad inhibitor against MMPs including MMP2, MMP9 and MT1-MMP (18).

The subject of the next test is MMP2. Description: gelatin zymography of conditioned medium, MMP-2. As to conditions: co-transduction with Ad-VEGF, collagen gel, day 4. As to the method:
as §1, §2

Another test deals with MT1-MMP. Description: RT-PCR analysis of MT1-MMP expression in HUVEC. How it is done: as §1, §2

B1: N1ECDFc: Notch-based fusion protein or decoy: Notch1 extracellular domain EGF repeats fused to Fc; expressed from plasmid or adenovirus (Ad-N1ECDFc) (protein)
chain: ARGLRCSQPSGTCLNGGRCEVANGTEACVCSGAFVGQRCQDPSPCLSTPCKNAGTCYVVDHGGIVDYACSCPLGFSGPLCLTPLANACLANPCRNGGTCDLLTLTEYKCRCPPGWSGKSCQQADPCASNPCANGGQCLPFESSYICGCPPGFHGPTCRQDVNECSQNPGLCRHGGTCHNEIGSYRCACRATHTGPHCELPYVPCSPSPCQNGGTCRPTGDTTHECACLPGFAGQNCEENVDDCPGNNCKNGGACVDGVNTYNCRCPPEWTGQYCTEDVDECQLMPNACQNAGTCHNSHGGYNCVCVNGWTGEDCSDNIDDCASAACFQGATCHDRVASFYCECPHGRTGLLCHLNDACISNPCNEGSNCDTNPVNGKAICTCPRGYTGPACSQDVDECALGANPCEHAGKCLNTLGSFECQCLQGYTGPRCEIDVNECISNPCQNDATCLDQIGEFQCICMPGYEGVYCEINTDECASSPCLHNGRCVDKINEFLCQCPKGFSGHLCQYDVDECASTPCKNGAKCLDGPNTYTCVCTEGYTGTHCEVDIDECDPDPCHIGLCKDGVATFTCLCQPGYTGHHCETNINECHSQPCRHGGTCQDRDNYYLCLCLKGTTGPNCEINLDDCASNPCDSGTCLDKIDGYECACEPGYTGSMCNVNIDECAGSPCHNGGTCEDGIAGFTCRCPEGYHDPTCLSEVNECNSNPCIHGACRDGLNGYKCDCAPGWSGTNCDINNNECESNPCVNGGTCKDMTSGYVCTCREGFSGPNCQTNINECASNPCLNQGTCIDDVAGYKCNCPLPYTGATCEVVLAPCATSPCKNSGVCKESEDYESFSCVCPTGWQGQTCEIDINECVKSPCRHGASCQNTNGSYRCLCQAGYTGRNCESDIDDCRPNPCHNGGSCTDGVNAAFCDCLPGFQGAFCEEDINECATNPCQNGANCTDCVDSYTCTCPTGFNGIHCENNTPDCTESSCFNGGTCVDGINSFTCLCPPGFTGSYCQYDVNECDSRPCLHGGTCQDSYGTYKCTCPQGYTGLNCQNLVRWCDSAPCKNGGKCWQTNTQYHCECRSGWTGFNCDVLSVSCEVAAQKRGIDVTLLCQHGGLCVDEEDKHYCHCQAGYTGSYCEDEVDECSPNPCQNGATCTDYLGGFSCKCVAGYHGSNCSEEINECLSQPCQNGGTCIDLTNTYKCSCPRGTQGVHCEINVDDCHPPLDPASRSPKCFNNGTCVDQVGGYTCTCPPGFVGERCEGDVNECLSNPCDPRGTQNCVQRVNDFHCECRAGHTGRRCESVINGCRGKPCRNGGVCAVASNTARGFICRCPARFEGATCENDARTCGSLRCLNGGTCISGPRSPTCLCLGSFTGPECQFPASSPCVGSNPCYNQGTCEPTSESPFYRCLCPAKFNGLLCHILDYSFTDLGPG
modifications: left off: a dimerising Fc or GST
For B1, in the test on HUVEC, the “proliferation of HUVEC” value is “did not clearly alter”. Besides, the “induction and activation of MMP9” value with MMP9 is recorded as “inhibition”. Further, the “activation of MMP2” value with MMP2 is “inhibition”. The “expression of MT1-MMP” value in the test on MT1-MMP (Ad-N1ECDFc infection alone, Ad-LacZ infected HUVEC (data not shown)) is “did not affect”. For the same molecule, in the test with MT1-MMP (Ad-VEGF-HUVEC, co-transduction at 40 MOI each), the “VEGF-induced up-regulation of MT1-MMP mRNA” value is “inhibited”.
